Results taken from a protein production outcome set (Wang et al. 2014).

Experiment: label from the status in PepcDB records

Q: With “MAEHGETQADEEEEEQVWSWGAGTDGQLGTTKLQDELLPQLLSLTSLPSISMLACGGAHVIALTSGGKVFTWGRGSSGQLGHGDILNITLPKLVSFFDDSVITQAAAGWSHSGFVSDSGCIFTCGNGSFGQLGHGDTLSLSTPAKVSHFNNDSVKMVACGMRHSLVLFAGNQVCGFGSGKRGQLGFSSDRIKSVNLPCVVSGLKDVEVVRISANGDHSAAISADGQFFSWGRGFCGGPDVHAPQSLPSPLSFREVAVGWNHALLLTVDGEVFKLGSTLNKQPEKQQLQIDSSEALFEKVPDFDGVKVMQIAAGAEHSAAVTENGEVKTWGWGEHGQLGLGNTNDQTSPELVSLGSIDLRTKEIKVYCGSGFTYAVKRKQELSPTSS” as the sequence, how does the protein production read?
A: failed

Q: For “MAEILRLSPAICAYPDETYENLKIEVVLPGVEKENISFKVVEDGFYVKATKEGVEYTDSYAVCCPISPEKATATYSNGVLKVNVPYQQPFEKAVDVKIE”, which protein production is on record?
A: failed

Q: With “MAEITENTKKILEVILNLKEGQVMSYRDVGALAGLPNGARQVSRILHSMSKKYELPWWRVVRSDRTIGLPEPAKSEQMELLKKEGISFTAQGKIIIEDELLLEHHHHHH” as the sequence, how does the protein production read?
A: not failed

Q: With “MAEKRTVRPFAGTERRAKGWIQEAALRMLNNNLHPDVAERPDELIVYGGIGKAARNWECYEAIVDTLLRLENDETLLIQSGKPVAVFRTHPDAPRVLIANSNLVPAWATWDHFHELDKKGLIMYGQMTAGSWIYIGSQGIVQGTYETFAEVARQHFGGTLAGTITLTAGLGGMGGAQPLAVTMNGGVCLAIEVDPARIQRRIDTNYLDTMTDSLDAALEMAKQAKEEKKALSIGLVGNAAEVLPRLVETGFVPDVLTDQTSAHDPLNGYIPAGLTLDEAAELRARDPKQYIARAKQSIAAHVRAMLAMQKQGAVTFDYGNNIRQVAKDEGVDDAFSFPGFVPAYIRPLFCEGKGPFRWVALSGDPEDIYKTDEVILREFSDNERLCHWIRMAQKRIKFQGLPARICWLGYGERAKFGKIINDMVAKGELKAPIVIGRDHLDSGSVASPNRETEGMKDGSDAIADWPILNALLNAVGGASWVSVHHGGGVGMGYSIHAGMVIVADGTKEAEKRLERVLTTDPGLGVIRHADAGYELAIRTAKEKGIDMPMLK” as the sequence, how does the protein production read?
A: not failed

Q: With “MAEKVKSGQVFNLLCIFSIFFFLFVLSVNVSADVDSERAVPSEDKTTTVWLTKIKRSGKNYWAKVRETLDRGQSHFFPPNTYFTGKNDAPMGAGENMKEAATRSFEHSKATVEEAARSAAEVVSDTAEAVKEKVKRSVSGGVTQPSEGSEEL” as the sequence, how does the protein production read?
A: failed

Q: Which protein production does the source give for “MAELYVKPGNKERGWNDPPQFSYGLQTQTGGPKRTPLTKRVAAPQDGSPRAPETSGPPPVDHPPPSSKASRPPPMGSCPATGVEPPSSPVIESETLIEDVLRPLEQALEDCHGHTKKQVCDDISRRLALLREQWAGGKLSIPVKKRMALLVQELLHHQWDAADDIHRSLMVDHVTEVSQWMVGVKRLIAEKKSLSSEETKEEKFTVEPENQTIPGFQQPS” here?
A: not failed

Q: For “MAEPLQPDPGAAEDAAAQAVETPGWKAPEDAGPQPGSYEIRHYGPAKWVSTSVESMDWDSAIQTGFTKLNSYIQGKNEKEMKIKMTAPVTSYVEPGSGPFSESTITISLYIPSEQQFDPPRPLESDVFIEDRAEMTVFVRSFDGFSSAQKNQEQLLTLASILREDGKVFDEKVYYTAGYNSPVKLLNRNNEVWLIQKNEPTKENE”, which protein production is on record?
A: failed

Q: With “MAERAMSVTPYWELTFDADGDVDGRERDRLLAQVAQRKVHDLVVFAHGWNNERSGATRLYSRFFQPVPALAPRARLGYVGVVWPSMIFPDEPIPDFPASVPAEVTAVARPALAKGARQALVEVFPDRATLVEQIARLLERHPDEEASLETFGQLVRLLVEARPQDPQDACAADTLATGGPVSGPEMLSGDTALVCRDFARALDRVASLHGTSAASGAVDFSFTPAGLWDGAHELLRQATYYAMKRRAGTVGERGLGRVLGRLAQAAPDVRVHLVGHSFGGRLVSFALRGLPAGVRTVKSVTLLQGAFSHYAFAARLPHDTHASGALHGLQSRIDGPLVCCYSHFDSALGTMYPLASRMAGDARSAAGELGADFDIGRTLGPRWGAMGHDGVQAVDGTRAFTLAEALRAELPASGCVNVDAAAVVKRGGPPTGAHSDIVHRELAQVVLAAGRIR” as the sequence, how does the protein production read?
A: failed

Q: For “MAERTLVKPCTSVPPTMVRVPNVTRADALAAARNPLALIAERWTPAPRTVRRAALAALVMAVVIVVTGGAVRLTGSGLGCPTWPKCTDDSLTTTSAMGFHGVIEFGNRMLTYVLCAAVGWAIIAARSQKPWRRSLTRLGWAQFWIVMSNAILGGIVVLVGLNPYTVAAHFLLSTALIAVATLMWQRACEGDGAPRPLVGKAVQQLVWFLVTASVLLIAVGTVVTGAGPHAGDSSDVERMPLDWETVSKLHAVLAWIVVTLTFALWFVLKAVDAPKGPLHRTRDLFLILLAQGVIGYVQYFTDLPEALVALHMLGSCLVWIGVLRVLLSLRERPEAVADLPGPSTESALTRA”, which protein production is on record?
A: failed

Q: Which protein production does the source give for “MAESVRLPTPYNRKTEIRPMFTEIILFLLDTVFTLFGMALLLRLWMQLSRLPSRNPVSQGVFQVTDWIVRPLRRIIPGLGGIDWATVFAAYLTAVAFLLCRALVLGADPLGFLPVILALGVLSMLKWGISMVMWVTLLMAVLSWVNPNSPLAAPIWHLTAPLLRPIQRVVPRLGGFDISPLILFVIAQILLMVIANVSRGVA” here?
A: failed

Q: For “MAETLITKPPLSLSFTSLSSMLPSLSLSTANRHLSVTDTIPLPNSNSNATPPLRIAIIGFGNYGQFLAETLISQGHILFAHSRSDHSSAARRLGVSYFTDLHDLCERHPDVVLLCTSILSIENILKTLPFQRLRRNTLFVDVLSVKEFAKTLLLQYLPEDFDILCTHPMFGPQSVSSNHGWRGLRFVYDKVRIGEERLRVSRCESFLEIFVREGCEMVEMSVTDHDKFAAESQFITHTLGRLLGMLKLISTPINTKGYEALLDLAENICGDSFDLYYGLFVYNNNSLEVLERIDLAFEALRKELFSRLHGVVRKQSFEGEAKKVHVFPNCGENDASLDMMRSEDVVVKYEYNSQVSGSVNDGSRLKIGIVGFGNFGQFLGKTMVKQGHTVLAYSRSDYTDEAAKLGVSYFSDLDDLFEEHPEVIILCTSILSTEKVLESLPFQRLKRSTLFVDVLSVKEFPRNLFLQTLPQDFDILCTHPMFGPESGKNGWNNLAFVFDKVRIGMDDRRKSRCNSFLDIFAREGCRMVEMSCAEHDWHAAGSQFITHTVGRLLEKLSLESTPIDTKGYETLLKLVENTAGDSFDLYYGLFLYNPNAMEQLERFHVAFESLKTQLFGRLHSQHSHELAKSSSPKTTKLLTS”, which protein production is on record?
A: failed

Q: Which protein production does the source give for “MAETVGMILCGGFGKRLRPLTEKIPKPLIEIKEGYTILDKQLFDLKNAGINTVYLLTGFLGERIEERYGDNYKGLRIEYVREEKPLGTLNAIRLGMEAIDGEKQCIIRNGDVVADLNIKKMIHLGEMSDYPLTMFITRMQSPYGIVETSGDKIINFREKPLLDYYINAGVYFSKGNLDFGDFESGDIEKTLFPLMAKENKLGYYREDGLFWMAIDTSKELEEIRKEYRNREDKPWGYEKILINTEKYLTKELFIREGYRTSFHYHEEKDETMYIISGSGYIEFDNRKEYFSKNDTIRIEPGERHSIVAMENTVLHEVSTPHLNDTVRVQDYYTRLEHHHHHH” here?
A: not failed

Q: Which protein production does the source give for “MAEVERPQLYLVTPPEIDLEIFPDRLAAVLDSTEVACLRLALAGKDEDRIARTGDALREVAHARDVALVIENHVLMVERLGLDGVHLTDGARLVRKLRKDLGPDAILGAFCGRTRHEGINAAEAGADYVAFGPVGTTALGDGSLAEAELFGWWSEMIEVPVVAEGALTPEKVAELAPLTDFFAVGEEIWREEDAAAALRRLLAPLGLEHHHHHH” here?
A: not failed

Q: For “MAFLKVVPLEKALEVVQSFKISPGIEEVPIEKGLGRIAAEDIYSPIDVPPFDRATVDGYAVRAEDTFMASEASPVRLKVIGSVHAGEEPKFKLGKGEAAYISTGAMLPGNADAVIQFEDVERVNGEILIYKPAYPGLGVMKKGIDIEKGRLLVKKGERLGFKQTALLSAVGINKVKVFRKPKVAVISTGNEIVPPGNELKPGQIYDINGRALCDAINELGGEGIFMGVARDDKESLKALIEKAVNVGDVVVISGGASGGTKDLTASVIEELGEVKVHGIAIQPGKPTIIGVIKGKPVFGLPGYPTSCLTNFTLLVVPLLLRALGREGKIGKKVARLKHKVFSVKGRRQFLPVKLEGDLAVPILKGSGAVTSFIDADGFVEIPETVESLDEGEEVEVTLFKGW”, which protein production is on record?
A: not failed
